Tests used:
[1] = target: protein kinase A (PKA) regulatory subunit RI (human (endogenous in HPAEC)) (UniProt P10644); test: non-reducing SDS-PAGE with Western blot
[2] = target: phosphorylated cAMP response element-binding protein (CREB) (human (endogenous in HPAEC)); test: co-IP
Sequence of phosphorylated cAMP response element-binding protein (CREB) (human (endogenous in HPAEC)) (P16220 whole entry): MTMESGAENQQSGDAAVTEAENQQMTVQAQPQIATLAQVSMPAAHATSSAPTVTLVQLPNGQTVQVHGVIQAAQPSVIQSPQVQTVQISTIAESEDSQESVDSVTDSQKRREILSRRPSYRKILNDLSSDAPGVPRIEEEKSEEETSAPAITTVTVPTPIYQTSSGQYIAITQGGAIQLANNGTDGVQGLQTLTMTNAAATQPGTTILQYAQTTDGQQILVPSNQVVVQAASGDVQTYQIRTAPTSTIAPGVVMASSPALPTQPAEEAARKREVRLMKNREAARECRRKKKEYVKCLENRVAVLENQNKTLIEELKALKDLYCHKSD

Row | Substance | fold change of the dimer band, 100 µM H2O2 against 0 µM H2O2 [1] [fold] | fold change of co-precipitated Ref-1, hypoxia against normoxia [2] [fold]
1 | protein kinase A (PKA) regulatory subunit RI (from UniProt P10644 1-381) (natural protein) | 3.3 | –
2 | redox factor 1 (Ref-1) (from UniProt P27695 1-318) (natural protein) | – | 1.81
